Ends that are not written are not given here. * marks the point of attachment. Biotin = O=C1N[C@H]2[C@H](CS[C@H]2CCCCC(=O)*)N1; PEG (amino-terminated) = not defined here; cellulose membrane = not defined here

Here are results for 19 molecules from patent US20110269227A1 (SHARP, published 2011).

The target in experiment [1] is T1, human adiponectin (R&D Systems) (human, UniProt Q15848 19-244).
T1 construct: Bought protein; also called ACRP30; GBP28
T1 sequence (looked up): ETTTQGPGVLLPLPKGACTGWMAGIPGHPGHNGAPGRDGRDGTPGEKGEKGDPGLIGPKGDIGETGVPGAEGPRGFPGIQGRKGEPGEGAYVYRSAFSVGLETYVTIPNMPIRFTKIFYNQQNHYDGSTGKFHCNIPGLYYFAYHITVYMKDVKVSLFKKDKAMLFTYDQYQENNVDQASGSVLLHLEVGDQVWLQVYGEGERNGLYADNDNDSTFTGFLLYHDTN
Nature of the experiment: peptide spot on cellulose membrane, sandwich enzyme immunoassay with HRP-tagged anti-adiponectin antibody, fluorescence. On the procedure:
First, a cellulose membrane was soaked in ethanol. Then, the cellulose membrane was continuously washed with phosphate buffered saline (PBS) (pH 7.4) so that ethanol contained in the cellulose membrane was replaced with PBS. In order that nonspecific binding is inhibited, the cellulose membrane was incubated overnight in a blocking solution (PBS containing 1% milk powder).
Then, the cellulose membrane was incubated for 1 hour in a blocking solution (PBS containing 1% milk powder) which contains 0.25 μg/mL human adiponectin (R&D Systems). Then, the cellulose membrane was washed with PBST (PBS containing 0.1% (v/v) Tween 20). Then, the cellulose membrane was incubated for 1 hour in a blocking solution containing […] anti-human adiponectin antibody (R&D Systems) which is tagged with HRP, and then washed with PBST five times.
After that, 100 μM fluorescent substrate (Amplex Red (Invitrogen)) containing 1 mM hydrogen peroxide was added to the cellulose membrane, and then they react with each other for 10 minutes. A fluorescent intensity in a synthesis spot was measured in such a manner that an […] wavelength of 595 nm of fluorescence from the fluorescent substrate was measured by a fluorescence imager (GE Healthcare) by exciting, with light of 540 nm, the fluorescent substrate in the synthesis spot. A bond strength of the peptide was worked out from the fluorescent intensity in the synthesis spot.

Experiment [2] addresses T1, human adiponectin (R&D Systems). The experiment can be described thus: adiponectin coated on microplate, 1 mM biotin-tagged peptide, HRP-streptavidin, TMB absorbance at 450 nm. On the procedure: 5 μg/mL adiponectin (R&D Systems) prepared with PBS was dispensed to wells of a 96-well microplate in an amount of 100 μL per well. Then, the peptides were incubated for 1 hour at 37° C. Adiponectin was thus immobilized in the wells. In order to inhibit nonspecific binding, a blocking solution (Protein-Free Blocking Buffer, PIERCE) was then added to the wells in an amount of 300 μL per well. Then, the peptides were incubated for 2 hours at room temperature. Then, the wells were washed three times with PBST (PBS containing 0.1% (v/v) Tween 20). Then, 1 mM biotin-tagged peptide was added to the wells in an amount of 100 μL per well. Then, the peptides were incubated for 1 hour at room temperature. Then, the wells were washed with PBST again.
Then, HRP-tagged streptavidin (R&D Systems) diluted with 200 parts of the blocking solution (Protein-Free Blocking Buffer, PIERCE) was added to the well in an amount of 100 μL per well. Then, the streptavidin was incubated for 1 hour at room temperature. Then, the wells were washed with PBST. Then, TMB (tetramethylbenzidine) was added to the wells in an amount of 100 μL per well so that they react with each other for 20 minutes. Then, the reaction was stopped by adding 1 M of HCL to the wells in an amount of 100 μL per well. Then, an absorbance at 450 nm was measured by use of a microplate reader (Bio-Rad).

B1: peptide consisting of the amino-acid sequence represented by SEQ ID NO: 2 (peptide)
peptide: LTLPLQAHHAME-{PEG (amino-terminated)-cellulose membrane}
modifications: reading uncertain
notes: Spot-synthesised on a cellulose membrane
For B1, the binding result in experiment [1] is recorded as “binds”.

B2: peptide consisting of the amino-acid sequence represented by SEQ ID NO: 4 (peptide)
peptide: FRIHTETG-{PEG (amino-terminated)-cellulose membrane}
modifications: reading uncertain
notes: as for B1
With B2, in experiment [1], the binding result is “binds”.

B3: peptide consisting of the amino-acid sequence represented by SEQ ID NO: 14 (peptide)
peptide: ITPIHWVK-{PEG (amino-terminated)-cellulose membrane}
modifications: reading uncertain
notes: as for B1
Take B3: the binding result in experiment [1] is listed as “binds”.

B4: peptide consisting of the amino-acid sequence represented by SEQ ID NO: 9 (peptide)
peptide: RFATPKHR-{PEG (amino-terminated)-cellulose membrane}
modifications: reading uncertain
notes: as for B1
In the case of B4, the binding result in experiment [1] is recorded as “binds”.

With KFATPKHR [peptide having the amino-acid sequence represented by SEQ ID NO: 19], the binding result in experiment [1] is given as “binds”.

B5: peptide consisting of the amino-acid sequence represented by SEQ ID NO: 5 (peptide)
peptide: ILTMLRPNMYF-{PEG (amino-terminated)-cellulose membrane}
modifications: reading uncertain
notes: as for B1
Consider B5, for which the binding result in experiment [1] is “binds”.

B6: peptide consisting of the amino-acid sequence represented by SEQ ID NO: 3 (peptide)
peptide: LLHGHRPPMP-{PEG (amino-terminated)-cellulose membrane}
modifications: reading uncertain
notes: as for B1
With B6, in experiment [1], the binding result is on record as “binds”.

B7: peptide consisting of the amino-acid sequence represented by SEQ ID NO: 12 (peptide)
peptide: FLGLGLSGVVPT-{PEG (amino-terminated)-cellulose membrane}
modifications: reading uncertain
notes: as for B1
With B7, in experiment [1], the binding result is reported as “binds”.

B8: peptide consisting of the amino-acid sequence represented by SEQ ID NO: 10 (peptide)
peptide: RQTRAGVF-{PEG (amino-terminated)-cellulose membrane}
modifications: reading uncertain
notes: as for B1
Regarding B8, in experiment [1], the binding result is given as “binds”.

As to ILLPLRINK(Biotin), the binding result in experiment [2] is given as “binds”.

ITPIHWVKK(Biotin): in experiment [2], the binding result was “binds”.

B9: peptide consisting of the amino-acid sequence represented by SEQ ID NO: 7 (peptide)
peptide: IALLIMGS-{PEG (amino-terminated)-cellulose membrane}
modifications: reading uncertain
notes: as for B1
Regarding B9, in experiment [1], the binding result is “binds”.

B10: peptide consisting of the amino-acid sequence represented by SEQ ID NO: 11 (peptide)
peptide: MHFTIAEG-{PEG (amino-terminated)-cellulose membrane}
modifications: reading uncertain
notes: as for B1
As for B10, the binding result in experiment [1] is “binds”.

B11: peptide consisting of the amino-acid sequence represented by SEQ ID NO: 6 (peptide)
peptide: APLQEKVVFG-{PEG (amino-terminated)-cellulose membrane}
modifications: reading uncertain
notes: as for B1
In the case of B11, the binding result in experiment [1] is on record as “binds”.

B12: peptide consisting of the amino-acid sequence represented by SEQ ID NO: 15 (peptide)
peptide: ILLPLRIN-{PEG (amino-terminated)-cellulose membrane}
modifications: reading uncertain
notes: Spot-synthesised on a cellulose membrane; also called ILLPLRIN
For the molecule B12, the binding result in experiment [1] is on record as “binds”.

B13: peptide consisting of the amino-acid sequence represented by SEQ ID NO: 8 (peptide)
peptide: MGSFVPW-{PEG (amino-terminated)-cellulose membrane}
modifications: reading uncertain
notes: Spot-synthesised on a cellulose membrane; also called MGSFVPW
Turning to B13, the binding result in experiment [1] is on record as “binds”.

Turning to MGSFVPY-{PEG (amino-terminated)-cellulose membrane} (reading uncertain, also called MGSFVPY) [peptide having the amino-acid sequence represented by SEQ ID NO: 18], the binding result in experiment [1] is “binds”.

B14: peptide consisting of the amino-acid sequence represented by SEQ ID NO: 1 (peptide)
peptide: VRVLTLPL-{PEG (amino-terminated)-cellulose membrane}
modifications: reading uncertain
notes: as for B1
As for B14, the binding result in experiment [1] is “binds”.

B15: peptide consisting of the amino-acid sequence represented by SEQ ID NO: 13 (peptide)
peptide: GFVKATTV-{PEG (amino-terminated)-cellulose membrane}
modifications: reading uncertain
notes: as for B1
Turning to B15, the binding result in experiment [1] is reported as “binds”.
